Test results as given in patent US20030235900A1.

Biological target: Strep-Tactin Macroprep resin (Cat. No. 2-1505-010; IBA GmbH)
Experiment: batch binding to Strep-Tactin Macroprep resin, 1 hour in cold room; binding followed by MTSP10 activity left in the supernatant

percent of activity retained by the resin: 50 to 70%
B1: MTSP10-ST2 C122S (protease domain of human MTSP10, C122S mutant, with C-terminal Strep-tag II, expressed in Pichia pastoris) (enzyme)
chain: RIIGGTDTLEGGWPWQVSLHFVGSAYCGASVISREWLLSAAHCFHGNRLSDPTPWTAHLGMYVQGNAKFVSPVRRIVVHEYYNSQTFDYDIALLQLSIAWPETLKQLIQPISIPPTGQRVRSGEKCWVTGWGRRHEADNKGSLVLQQAEVELIDQTLCVSTYGIITSRMLCAGIMSGKRDACKGDSGGPLSCRRKSDGKWILTGIVSWGHGCGRPNFPGVYTRVSNFVPWIGGWSHPQFEK
